Assay results from patent CN117586402A (HEFEI TIANGANG IMMUNOLOGY PHARMACEUTICAL CO LTD, dated 2024).

Target: T1, NKp80 on human primary T cells and NK cells (人PBMC中CD3+ T细胞和CD56+ NK细胞) (人 (human), UniProt Q9NZS2 1-231)
T1 construct: whole, on cells; also called 人原代T细胞和NK细胞
T1 sequence (looked up): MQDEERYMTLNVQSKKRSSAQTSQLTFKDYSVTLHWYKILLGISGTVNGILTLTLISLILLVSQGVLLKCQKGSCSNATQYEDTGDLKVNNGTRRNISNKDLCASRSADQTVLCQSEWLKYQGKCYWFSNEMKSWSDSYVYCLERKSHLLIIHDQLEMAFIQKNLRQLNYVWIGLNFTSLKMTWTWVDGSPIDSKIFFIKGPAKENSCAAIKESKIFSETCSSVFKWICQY
Assay: flow cytometry on human PBMC, CD3+ cells

B1: 嵌合NKp80抗体(53G7) (antibody, human IgG1, V domains shown)
VH: EVQLQQSGPELVNPGASVKISCKTSGYTFTDYYMNWVKQSHGKSLEWIGDIHPNNGGTSYNQKFKGKATLTVDKSSSTAYMELRSLTSEDSAVYYCARDYGGTYTNWAQNYFDYWGQGTTLTVSS
VL: DIVQTQSPASLAVSLGQRATISCRASQSVSTPSYSYMHWYQQKPGQPPKLLIKYASNLESGVPARFSGSGSGTDFTLNIHPVEEEDTATYYCQHSWEIPWTFGGGTKLEIKA
notes: also called 53G7抗体; 抗人NKp80抗体53G7
- binding result: binds
